Test results as given in patent publication US20240279618A1, “RECEPTOR TYROSINE KINASE AGONIST, COMPOSITION FOR CELL CULTURE MEDIUM, AND […] MAINTENANCE COMPOSITION” (SEKISUI CHEMICAL CO., LTD., priority 2021, published 2024).

T1: FGFR4-Fc (Homo sapiens, UniProt P22455)
T1 construct: Fc
T1 sequence (P22455 22-369 limits assumed): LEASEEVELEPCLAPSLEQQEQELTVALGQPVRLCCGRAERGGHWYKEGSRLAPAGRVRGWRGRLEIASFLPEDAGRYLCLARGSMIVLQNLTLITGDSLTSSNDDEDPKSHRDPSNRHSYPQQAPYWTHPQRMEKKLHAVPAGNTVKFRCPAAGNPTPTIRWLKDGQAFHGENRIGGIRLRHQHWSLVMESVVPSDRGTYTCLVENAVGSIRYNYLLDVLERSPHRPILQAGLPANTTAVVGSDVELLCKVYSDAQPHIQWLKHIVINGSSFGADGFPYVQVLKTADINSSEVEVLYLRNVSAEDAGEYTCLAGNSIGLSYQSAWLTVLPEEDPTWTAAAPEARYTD


Experiments:
[1] = tested on: NIH3T3 (mouse fibroblast cell line); assay: Cell growth assay with NIH3T3 (Cell Titer Glo luminescence); format: cell-based
Protocol: As a cell for measuring a cell growth activity, NIH3T3 (mouse fibroblast cell line) was obtained from ECACC through a domestic agent. The cell which was subjected to extended culture according to an ordinary method, and then freeze-preserved at −80° C. using CellBankeR1 plus (manufactured by Xenoac Co., Ltd.) was used. […]
The cell growth assay for FGF2 was performed according to the following procedure. […] The plate was further left to stand for 8 minutes, and then the luminescence in each well was measured with a Synergy HTX plate reader (manufactured by BioTek) with a sensitivity set (Gain) of 200 and a measurement time of 1 s/well.
The measurement was performed at three points at each concentration of the test substance, for the measurement at a single concentration, 100 ng/ml of FGF2 was used as a positive control and a condition of no addition was used as a negative control, and the VHH monomer was prepared with uniform 100-fold dilution, and measured. […] EC50 measurement data were obtained according to an ordinary method using a control software attached to a plate reader. The EC50 value was calculated by applying the 4-parameter fit.
Each stock of the VHH monomer (Clone #1: 2.65 mg/mL; Clone #2: 0.82 mg/mL-PBS) was diluted 100-fold to check the presence or absence of the cell growth activity. […] The vertical axis in FIG. 15 indicates a relative luminescence amount. […]

FGFR4-Fc = molecular target: T1, FGFR4-Fc; assay: SPR affinity of VHH (monomer) for FGFR4-Fc; format: binding; settings: same manner as Example 5
Protocol: (§1) The binding activity of VHH Clone #1 or VHH Clone #2 immobilized on Series S Sensor Chip CAP (manufactured by Cytiva) with respect to FGFR1-Fc was measured using Biacore (registered trademark) T200 (manufactured by Cytiva). Measurement was performed by CAP Single-cycle Kinetics. The temperature was set to 25° C. As a running buffer, 10 mM HEPES (pH 7.4) (Cytiva) including HBS-EP+(150 mM NaCl, 0.5 mM EDTA, and 0.05% surfactant P20) was used. The measurement order for each run is as follows.
(§2) 2) Measurement of binding activity: The flow rate was set to 30 μL/mL, and VHH Clone #1 or VHH Clone #2 each diluted to 1.85 nM, 5.56 nM, 16.67 nM, or 50 nM, using a running buffer, was allowed to have an association time set to 120 seconds for binding and a dissociation time set to 600 seconds for interaction.
(§3) 3) Regeneration of sensor chip surface: The flow rate was set to 10 μL/mL, a solution in which Reaneration stock 1 and Regeneration stock 2 (manufactured by Cytiva) were mixed at the ratio of 3:1 was added thereto for 120 seconds to extract the immobilized VHH. Next, analysis was performed with a 1:1 binding model using Biacore T200 Evaluation (software version 2.0, manufactured by Cytiva), and the binding activity was calculated.
(§4) The binding activity of VHH Clone #1 to FGFR2-Fc, FGFR3-Fc, or FGFR4-Fc was measured in the same manner as in Example 5.

FGFR2-Fc = assay: SPR affinity of VHH (monomer) for FGFR2-Fc; format: binding, human; settings: same manner as Example 5
Protocol: as §1, §2, §3, §4

| ka (FGFR4-Fc) | kd (FGFR4-Fc) | kd (FGFR2-Fc) | Molecule | cell growth activity (relative luminescence amount, RLU) ([1]; NIH3T3, serum-free, 2 days, 4-fold dilution series, compared with FGF2) | cell growth activity of VHH monomer (relative luminescence amount) ([1]; NIH3T3, stock diluted 100-fold (Clone #2: 8.20 μg/mL)) | ka (FGFR2-Fc) |
| --- | --- | --- | --- | --- | --- | --- |
|  |  |  | VHH Clone #2: alpaca-derived VHH single-domain antibody (monomer) binding FGFR1, amino acid sequence SEQ ID NO: 18 (protein, VHH_Clone_#2) VHH: QVQLVESGGGLVQAGGSLRLSCAVPGSIFRFNTMGWYRQPPGKQRELVAQMSRGGITKYGDSVKGRFTITRDNAKNTVHLQMNSLKPEDTAVYYCAGSYYSGSYYYPSPQGFSVWGQGTQVTVSP | relative luminescence amount was low even at a high concentration | significantly exhibited a cell growth activity |  |
| 2.37e+06 M⁻¹ s⁻¹ | 0.0527 s⁻¹ | 0.776 s⁻¹ | VHH Clone #1: alpaca-derived VHH single-domain antibody (monomer) binding FGFR1, amino acid sequence SEQ ID NO: 17 (protein, VHH_Clone_#1) VHH: QLQLVESGGGSVQAGGSLRLSCAASRSLSRFNVWTWYRQAPVKQRELVASITKSGDTNYAESVKGRFIISRDDDKNTVYLQMNNLKSEDTGIYYCAGSYYSGSYLYPSPGGFSVWGQGTQVTVSS |  |  | 484000 M⁻¹ s⁻¹ |
